Assay results from publication PMC7840605, “3-Hydroxyphthalic Anhydride-Modified Chicken Ovalbumin as a Potential Candidate Inhibits SARS-CoV-2 Infection by Disrupting the Interaction of Spike Protein With Host ACE2 Receptor” (Frontiers in Pharmacology, 2020).

Target: SARS-CoV-2 spike (S) protein (SARS-CoV-2, UniProt P0DTC2)
Test: cell-based or functional assay

B1: chicken ovalbumin (natural protein)
chain: MGSIGAASMEFCFDVFKELKVHHANENIFYCPIAIMSALAMVYLGAKDSTRTQINKVVRFDKLPGFGDSIEAQCGTSVNVHSSLRDILNQITKPNDVYSFSLASRLYAEERYPILPEYLQCVKELYRGGLEPINFQTAADQARELINSWVESQTNGIIRNVLQPSSVDSQTAMVLVNAIVFKGLWEKAFKDEDTQAMPFRVTEQESKPVQMMYQIGLFRVASMASEKMKILELPFASGTMSMLVLLPDEVSGLEQLESIINFEKLTEWTSSNVMEERKIKVYLPRMKMEEKYNLTSVLMAMGITDVFSSSANLSGISSAESLKISQAVHAAHAEINEAGREVVGSAEAGVDAASVSEEFRADHPFLFCIKHIATNAVLFFGRCVSP
IC50 against live SARS-CoV-2 in Vero E6 cells (CPE assay): > 50 µM
